This is an account of results in publication PMC7806871 (Cell Death Discovery, 2021).

The assay deals with T1, Tuberculosis necrotizing toxin (TNT), C-terminal domain of CpnT, recombinant TNT-His6x (M. tuberculosis, UniProt O05442 648-846).
T1 construct: not shown: His6, C-terminal, kept
T1 sequence: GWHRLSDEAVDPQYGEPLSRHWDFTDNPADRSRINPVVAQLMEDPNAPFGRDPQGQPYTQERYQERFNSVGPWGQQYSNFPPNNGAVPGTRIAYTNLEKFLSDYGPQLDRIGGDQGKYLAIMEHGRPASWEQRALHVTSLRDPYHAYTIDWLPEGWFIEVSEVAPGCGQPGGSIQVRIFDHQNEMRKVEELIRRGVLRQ
Briefly: ELISA. To be noted: both partners purified. On the technique in general: In an ELISA, binding on a coated surface is turned into a signal by an enzyme label.

B1: Immunity factor for TNT (IFT), recombinant IFT-His6x (natural protein)
chain: TIGVDLSTDLQDWIRLSGMNMIQGSETNDGRTILWNKGGEVRYFIDRLAGWYVITSSDRMSREGYEFAAASMSVIEKYLYGYFGGSVRSERELPAIRAPFQPEELMPEYSIGTMTFAGRQRDTLIDSSGTVVAITAADRLVELSHYLDVSVNVIKDSFLDSEGKPLFTLWKDYKG
notes: not shown: His6, C-terminal, kept
Consider B1, for which the binding result is “binds”.
